Here are results for two substances from PMC7853477.

The target of test [1] is SARS-CoV-2 S protein receptor-binding domain RBDv1 (319–541) with C-terminal c-myc and 6xHis tags (SARS-CoV-2) (UniProt P0DTC2). As to the kind of experiment: non-reducing SDS-PAGE with gel densitometry.
The target of test [2] is SARS-CoV-2 S protein receptor-binding domain RBDv2 (320–537) with C-terminal c-myc and 10xHis tags (SARS-CoV-2) (UniProt P0DTC2). The test is described as follows: non-reducing SDS-PAGE with gel densitometry.

By stoichiometry N is commonly meant the number of molecules, sites or subunits per partner or assembly.

For the substance “SARS-CoV-2 S protein receptor-binding domain RBDv1 (319–541) with C-terminal c-myc and 6xHis tags (from UniProt P0DTC2 319-541) (domain or fragment)”, in test [1], the stoichiometry N was 2. In test [2], “SARS-CoV-2 S protein receptor-binding domain RBDv2 (320–537) with C-terminal c-myc and 10xHis tags (from UniProt P0DTC2 320-537) (domain or fragment)” came in with a percent covalent dimer of 6% and a stoichiometry N of 2.
